Laboratory results reported in publication PMC4576200 (Viruses, 2015).

Target: the molecule itself
Experiment: AUC

B1: gp5β-BC, solvent-exposed part of the β-helical domain of bacteriophage T4 gene product 5 (residues 483–575) (domain or fragment, UniProt P16009 483-575, looked up)
chain: RGDETKTVEGNGTILVKGNVTIIVEGNADITVKGDATTLVEGNQTNTVNGNLSWKVAGTVDWDVGGDWTEKMASMSSISSGQYTIDGSRIDIG
  stoichiometry N: 3
